The target in this assay is CD20. In words: flow_cytometry. As to conditions: 4.0 °C.

Consider 2OSL-Fab (WT), for which, where the note is “pH 7.4”, the EC50 was determined as 14 nM.
2OSL-Fab-H-Y97NY showed an EC50 (pH 6.0) of 20 nM.
Consider 2OSL-Fab-L-Y32NY, for which the EC50 (pH 6.0) worked out at 8 nM.

Broadly, the EC50 is the concentration giving half of the maximal effect. Low readings indicate higher potency in that assay, high ones lower potency in that assay.
